Measurements published in the supplement of paper PMC6757056.
± gives the standard deviation of the averaged measurements.

B1: library; a variant is named by its letters at N, in order (parent)
chain: GCUGUCACCGGUGCUUGGUACGUUAUAUUCAGCCGGUCUGAUGAGUCUNNNNNNAGACGAAACAGC

Tests used:
(6R,S)-folinic acid [1] = variants of: B1; assay: normalized RNA/DNA level without ligand (relative to sTRSVctl = 100) (log10 (% of sTRSVctl)); HEK293T overexpressing SLC46A1; higher = less ribozyme self-cleavage, higher mRNA level; conditions: without (6R,S)-folinic acid; ligand present: no
How it was run: (§1)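 Total RNA, extracted with EDTA 72 h after HEK293T cells were transfected with 4 µg per 6-well well of reporter-linked ribozyme switch library plasmids, was reverse-transcribed, amplified, barcoded and sequenced. Ligand, if used, was added 1 h before transfection. RNA level was derived from RNA reads divided by DNA reads and normalized to a spiked-in non-cleaving sequence or to the top sequences. This was multiplied by 100 and log10-transformed, with the top set of 25 sequences and a ≥100 DNA read minimum.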

(6R,S)-folinic acid [2] = variants of: B1; assay: normalized RNA/DNA level with ligand (relative to sTRSVctl = 100) (log10 (% of sTRSVctl)); HEK293T overexpressing SLC46A1; ligand concentration (+) RNA-Seq: 6 mM; higher = less ribozyme self-cleavage, higher mRNA level; conditions: with (6R,S)-folinic acid; ligand present: yes
How it was run: as §1

Row | Variant | normalized RNA/DNA level without ligand (log10) ((6R,S)-folinic acid [1]) | normalized RNA/DNA level with ligand (log10) ((6R,S)-folinic acid [2])
1 | AGAUCC | 2.058 ± 0.0091 | 2.033 ± 0.02
2 | AGAUCG | 1.992 ± 0.0077 | 2.013 ± 0.019
3 | AGAUCU | 2.0242 ± 0.00035 | 2.05 ± 0.032
4 | GGCCGA | 2.081 ± 0.0077 | 2.05 ± 0.037
5 | GGAUAU | 2.0169 ± 0.0015 | 2.02 ± 0.023
6 | GGAUAC | 1.988 ± 0.011 | 2.034 ± 0.013
7 | GGAUAG | 1.95 ± 0.0034 | 2.03 ± 0.038
8 | AGCAGC | 2.028 ± 0.0032 | 2.03 ± 0.054
9 | AGCAGU | 1.991 ± 0.0037 | 2.01 ± 0.028
10 | AGCAGG | 1.944 ± 0.0028 | 2.01 ± 0.042
11 | CGACUU | 2.01 ± 0.035 | 2.05 ± 0.025
12 | CGACUG | 2.028 ± 0.0025 | 2.014 ± 0.011
13 | CGACUA | 2.014 ± 0.0047 | 2.042 ± 0.0086
14 | CGACUC | 2.08 ± 0.023 | 2.04 ± 0.07
15 | GGCCCA | 2.053 ± 0.01 | 2.032 ± 0.012
16 | GGCCCU | 2.099 ± 0.012 | 2.061 ± 0.013
17 | GGCCCC | 2.023 ± 0.0026 | 2.01 ± 0.026
18 | GGCCCG | 2.07 ± 0.0078 | 2.07 ± 0.023
19 | CGACAU | 2.006 ± 0.006 | 2.02 ± 0.044
20 | CGACAC | 2.026 ± 0.012 | 2 ± 0.037
21 | CGACAA | 1.945 ± 0.013 | 1.96 ± 0.029
22 | CGACAG | 1.95 ± 0.031 | 1.972 ± 0.018
23 | UGAGUC | 2.011 ± 0.012 | 2 ± 0.049

Row | Variant | normalized RNA/DNA level without ligand (log10) ((6R,S)-folinic acid [1]) | normalized RNA/DNA level with ligand (log10) ((6R,S)-folinic acid [2])
24 | UGAGUU | 1.943 ± 0.0073 | 1.99 ± 0.035
25 | UGCAGC | 1.982 ± 0.0063 | 2.012 ± 0.018
26 | UGCAGU | 1.9094 ± 0.0015 | 1.96 ± 0.026
27 | AGAGCG | 1.775 ± 0.0033 | 1.97 ± 0.029
28 | AGAGCC | 2.05 ± 0.003 | 2.04 ± 0.045
29 | AGAGCA | 1.977 ± 0.0046 | 2.01 ± 0.051
30 | CGCCCG | 2.03 ± 0.029 | 2.031 ± 0.0094
31 | CGCCCA | 2.068 ± 0.0022 | 2.06 ± 0.033
32 | CGCCCU | 2.09 ± 0.04 | 2.092 ± 0.017
33 | CGCCCC | 2.082 ± 0.017 | 2.04 ± 0.057
34 | GGAUCA | 2.02 ± 0.021 | 2.03 ± 0.05
35 | GGAUCU | 2.037 ± 0.0059 | 2.03 ± 0.045
36 | GGAUCC | 2.0688 ± 0.00086 | 2.06 ± 0.037
37 | GGAUCG | 2.0373 ± 0.00033 | 2.08 ± 0.045
38 | GGACUC | 2.0453 ± 0.0012 | 2.05 ± 0.03
39 | GGACUG | 1.9977 ± 0.00047 | 2 ± 0.059
40 | GGACUU | 2.007 ± 0.0068 | 1.976 ± 0.016
41 | CGAGGU | 2.02 ± 0.02 | 2.02 ± 0.054
42 | CGAGGA | 2.019 ± 0.0022 | 2.04 ± 0.029
43 | CGAGGC | 2.03 ± 0.013 | 2.04 ± 0.031
44 | CGCAAU | 1.9357 ± 0.0015 | 1.968 ± 0.014
45 | CGCAAA | 1.9697 ± 0.001 | 1.988 ± 0.0069
46 | CGCAAG | 2.011 ± 0.0045 | 2.02 ± 0.025

Row | Variant | normalized RNA/DNA level without ligand (log10) ((6R,S)-folinic acid [1]) | normalized RNA/DNA level with ligand (log10) ((6R,S)-folinic acid [2])
47 | AGAUAC | 1.983 ± 0.0026 | 2.022 ± 0.02
48 | AGAUAU | 1.97 ± 0.011 | 2.04 ± 0.038
49 | AGAUAG | 1.9299 ± 0.00079 | 2.01 ± 0.041
50 | CGAUAU | 1.949 ± 0.0095 | 2.01 ± 0.028
51 | CGAUAC | 1.995 ± 0.013 | 2.015 ± 0.0083
52 | CGAUAG | 1.959 ± 0.0024 | 1.977 ± 0.01
53 | CGAUAA | 1.946 ± 0.015 | 1.98 ± 0.04
54 | UGAGGU | 1.918 ± 0.017 | 2.02 ± 0.032
55 | UGAGGC | 1.982 ± 0.0067 | 1.98 ± 0.073
56 | UGAUUU | 1.9907 ± 0.00083 | 2.02 ± 0.023
57 | UGAUUC | 2.058 ± 0.0048 | 2.04 ± 0.04
58 | GGAGCU | 2.045 ± 0.017 | 2.04 ± 0.04
59 | GGAGCA | 1.978 ± 0.0021 | 2.02 ± 0.022
60 | GGAGCG | 1.939 ± 0.011 | 2.02 ± 0.041
61 | GGAGUG | 1.915 ± 0.004 | 2.01 ± 0.029
62 | GGAGUU | 2.011 ± 0.0026 | 2.05 ± 0.039
63 | GGAGUC | 2.02 ± 0.023 | 2.01 ± 0.024
64 | UGAUAU | 1.92 ± 0.034 | 1.984 ± 0.014
65 | UGAUAG | 1.7093 ± 0.0017 | 1.96 ± 0.049
66 | UGCAAG | 1.778 ± 0.01 | 1.96 ± 0.029
67 | UGCAAC | 1.95 ± 0.0091 | 1.99 ± 0.029
68 | CGAGCU | 2.014 ± 0.02 | 2.03 ± 0.04
69 | CGAGCC | 2.06 ± 0.028 | 2.03 ± 0.039

Row | Variant | normalized RNA/DNA level without ligand (log10) ((6R,S)-folinic acid [1]) | normalized RNA/DNA level with ligand (log10) ((6R,S)-folinic acid [2])
70 | CGAGCG | 1.994 ± 0.015 | 1.998 ± 0.017
71 | CGAGCA | 2 ± 0.021 | 2.02 ± 0.029
72 | AGACCG | 2.05 ± 0.026 | 2.04 ± 0.029
73 | AGACCC | 2.039 ± 0.0085 | 2.02 ± 0.055
74 | CGCAGA | 2.039 ± 0.0068 | 2.051 ± 0.015
75 | CGCAGG | 1.953 ± 0.012 | 2.03 ± 0.039
76 | CGCAGU | 2.037 ± 0.015 | 2.04 ± 0.049
77 | AGCACC | 2.08 ± 0.031 | 2 ± 0.03
78 | AGCACA | 2.0177 ± 0.00097 | 2 ± 0.04
79 | AGCACG | 1.99 ± 0.033 | 2.025 ± 0.01
80 | AGAAGU | 1.938 ± 0.007 | 1.9746 ± 0.00065
81 | AGACAU | 1.994 ± 0.0052 | 2.02 ± 0.026
82 | AGACAA | 2.004 ± 0.0066 | 2.01 ± 0.03
83 | AGACAC | 2.0193 ± 0.00083 | 2.01 ± 0.028
84 | UGCCCC | 2.03 ± 0.04 | 2.01 ± 0.07
85 | UGCCCG | 1.95 ± 0.022 | 2.01 ± 0.07
86 | UGCCCA | 2.007 ± 0.0092 | 1.99 ± 0.018
87 | UGCCCU | 2.061 ± 0.0087 | 2.06 ± 0.043
88 | CGCCAC | 2 ± 0.028 | 1.99 ± 0.042
89 | CGCCAA | 1.973 ± 0.014 | 2.02 ± 0.048
90 | CGCCAU | 1.986 ± 0.0097 | 1.98 ± 0.034
91 | CGAAGU | 1.99 ± 0.03 | 2 ± 0.032
92 | AGCCCG | 2.02 ± 0.0096 | 2.02 ± 0.0065

Row | Variant | normalized RNA/DNA level without ligand (log10) ((6R,S)-folinic acid [1]) | normalized RNA/DNA level with ligand (log10) ((6R,S)-folinic acid [2])
93 | AGCCCC | 2.051 ± 0.0083 | 2 ± 0.036
94 | AGCCCA | 2.045 ± 0.0089 | 2.02 ± 0.028
95 | AGCCCU | 2.078 ± 0.009 | 2.05 ± 0.042
96 | UGCAUC | 2.07 ± 0.032 | 2.035 ± 0.015
97 | UGCAUA | 1.948 ± 0.015 | 1.99 ± 0.068
98 | GGCAUU | 2.08 ± 0.025 | 2.04 ± 0.039
99 | GGCAUG | 2.064 ± 0.0071 | 2.03 ± 0.033
100 | GGCAUC | 2.055 ± 0.014 | 2.03 ± 0.033
101 | UGACCG | 1.983 ± 0.0022 | 2.01 ± 0.023
102 | UGACCU | 2.058 ± 0.011 | 2.06 ± 0.034
103 | UGACCC | 2.041 ± 0.011 | 2.02 ± 0.026
104 | GGCCAG | 2.037 ± 0.0046 | 2.016 ± 0.02
105 | GGCCAC | 2.022 ± 0.0039 | 1.99 ± 0.016
106 | CGAUCA | 2.008 ± 0.0093 | 2.04 ± 0.05
107 | CGAUCU | 2.062 ± 0.0057 | 2.06 ± 0.03
108 | CGAUCG | 2.042 ± 0.013 | 2.05 ± 0.034
109 | CGAUCC | 2.05 ± 0.023 | 2.06 ± 0.036
110 | AGCCGA | 2.004 ± 0.0033 | 2.02 ± 0.025
111 | AGAGAG | 1.67 ± 0.022 | 1.966 ± 0.015
112 | AGAGAC | 1.981 ± 0.0066 | 2.009 ± 0.016
113 | AGAGAA | 1.953 ± 0.0039 | 1.99 ± 0.025
114 | AGAGAU | 1.982 ± 0.011 | 1.99 ± 0.023
115 | GGCAGC | 2.001 ± 0.008 | 1.98 ± 0.032
